# Results taken from PMC6610696 (Structure (London, England : 1993), 2019).
# Positions count from the first letter of the chain named. Numbers in names are those of the source. Like-named read-outs stand apart in the source and are kept apart here. Square brackets hold non-standard residues; d marks the D form. Ends that are not written are not given here. pS = N[C@@H](COP(=O)(O)O)C(=O)O
# T1: S. cerevisiae Nrd1 CID (residues 6-151), N-terminal hexa-histidine tag (S. cerevisiae, UniProt P53617 6-151)
# T1 sequence (looked up): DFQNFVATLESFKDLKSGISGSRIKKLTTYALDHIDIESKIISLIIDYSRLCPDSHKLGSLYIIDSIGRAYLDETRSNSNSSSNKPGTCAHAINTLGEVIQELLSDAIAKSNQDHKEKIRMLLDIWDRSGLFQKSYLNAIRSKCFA
# B1: Nrd1 CID D70A mutant (domain or fragment, S. cerevisiae, UniProt P53617 6-151, looked up)
# chain: T1 sequence (looked up) with D65A
# B2: Nrd1 CID D70N mutant (domain or fragment, S. cerevisiae, UniProt P53617 6-151, looked up)
# chain: T1 sequence (looked up) with D65N
# B3: Nrd1 CID Y67A mutant (domain or fragment, S. cerevisiae, UniProt P53617 6-151, looked up)
# chain: T1 sequence (looked up) with Y62A
# B4: ScSen1-NIM2-FAM peptide (peptide)
# peptide: DDEDDYTPSISD
# modifications: also: 5-FAM label: N-terminal per methods, C-terminal per resources table
# What was measured:
# Assay in all cases: fluorescence polarisation
# ScSen1-NIM2-FAM peptide = biological target: B4
# [1] = biological target: T1, S. cerevisiae Nrd1 CID (residues …)
# [2] = biological target: T1, S. cerevisiae Nrd1 CID (residues …); remark: listed apart in the source
binder,measurement,setting,value
B1,fold increase in Kd for NIM2 against wild-type CID,ScSen1-NIM2-FAM peptide,30 fold
B2,fold increase in Kd for NIM2 against wild-type CID,ScSen1-NIM2-FAM peptide,3 fold
B3,fold increase in Kd for NIM2 against wild-type CID,ScSen1-NIM2-FAM peptide,90 fold
B4,Kd,[1],0.56 µM
EQEDDYKLPMEYIT [ScSen1-NIM1 peptide],Kd,[2],7.6 µM
EAEDPYDLNPHPQ [ScSen1-NIM3 peptide],Kd,[2],38 µM
DDEDDYTPSISD [ScSen1-NIM2 peptide],binding result,[2],binds
DDEDDYTVSISD [ScSen1-NIM2-P2060V peptide],fold increase in Kd against wild-type NIM2,[2],~20 fold
DDENDYTPSISD [ScSen1-NIM2-D2056N peptide],fold increase in Kd against wild-type NIM2,[2],13 fold
DDEDDYTASISD [ScSen1-NIM2-P2060A peptide],fold increase in Kd against wild-type NIM2,[2],~20 fold
SPT[pS]PSYSPT[pS]PS [Pol II Ser5P CTD peptide],Kd,[2],216 µM
